# The supplement of paper PMC12042874
# ± gives the uncertainty stated by the source.
# Assay: amyloid nucleation score (Sup35N fusion, yeast selection) (log enrichment); library NNK1; higher = more nucleation; inactive = no reads after selection
# In short: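 After 24 hours of induction with 100 μM copper sulfate, psi-negative yeast expressing peptides of 20 random codons fused to Sup35N were grown for 7 days at 30°C on medium lacking adenine and uracil. Input and output plasmid inserts were sequenced with Illumina, and sequences with under 100 input reads were discarded. Scores for nucleation are the DiMSum log enrichment of output over input reads, centred on the mode score of non-aggregating sequences.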
row,Substance,amyloid nucleation score
1,LYVDGGPCPTAELGQRSYEK,-0.17 ± 0.42
2,SVVNDFVYRL,-0.588 ± 0.86
3,GSEFQVLSFF,0.419 ± 0.58
4,DSEDVVLQCEWWTRLARIEY,-0.333 ± 0.54
5,CNPEGYRAHVLCFLNFA,3.63 ± 0.092
6,GFLTSSIYRSLAVQLNQSWW,0.078 ± 0.32
7,IYRFQWPWDMLMYCWTLMSV,-0.776 ± 0.93
8,PAYGTNIVAIYLWH,3.59 ± 0.093
9,DGARDFRLRMLACSRLSRGI,0.053 ± 0.72
10,FHCTNSMVMLGRHATMLFFY,5.92 ± 0.095
11,PREDRGLSWISGYYYYLVAG,-0.341 ± 0.47
12,DFSLSSPRFLFGDGCRNCNA,-0.028 ± 0.36
13,PLFCNNWSVLEFERRLGDMH,1.03 ± 0.24
14,IGLFWSFVKKIEVIICVGML,0.665 ± 0.9
15,ERLGLRRFTIIISRQAQV,0.03 ± 0.34
16,NCVVYDIEYICWNIGGKI,5.71 ± 0.077
17,KNPRGENIFLPCLRMGKHLL,-0.776 ± 1.9
18,LVSDSYNSLSLQDNLALLLI,0.261 ± 0.4
19,YWCAISSVSLKFLVMSYLSG,-0.362 ± 1.1
20,LRVRFKSWDLSITLGVQ,1.26 ± 0.9
21,RSRLLSFGVNGGWYIKMLIS,-0.028 ± 0.61
22,PSRWRYYGSYGDLILICSGS,-0.907 ± 0.79
23,SDWGGVMVDRGSGW,1.36 ± 0.47
24,NKSHAHLKVAMSLVCPFKSH,1.5 ± 0.44
25,VRVSVLLVYSGGRFSFPWVL,-0.063 ± 1.4

row,Substance,amyloid nucleation score
1,DIALMWLLLVHRDYT,-1.07 ± 0.76
2,AINLRLV,0.23 ± 0.36
3,ESVLWVFYV,0.1 ± 0.41
4,VVMNLLVLIGYLSSLYFLQA,-1.04 ± 1.9
5,IINVLC,3.73 ± 0.056
6,GFGSRRYFRAVLSCPR,0.852 ± 0.93
7,EICSSESAVQKHNSPWGSDY,-1.71 ± 2.7
8,RLYWSCCDRVDTFLCVF,4.43 ± 0.099
9,SLYDLTDTAICFAFFYFD,7.95 ± 0.082
10,IGFHSMDFEQYFCYFSVKTK,0.616 ± 0.75
11,GAYNWVF,-0.107 ± 0.55
12,YLHSSGGYNFSVRVSKYNCE,-0.689 ± 0.61
13,GYEHVKG,-0.195 ± 0.46
14,NTFYCCFLFFY,6.517 ± 0.044
15,RSQRGRPWEGGLSTSLGVRR,-0.736 ± 1.2
16,FGSSMLDFNLDFDKWCE,3.66 ± 0.076
17,CNDISISFYMRTGACYWRVW,-0.499 ± 0.46
18,WIPSFIQMDTVVRDTVNKEF,1.09 ± 0.74
19,MFLYLLVVTP,inactive
20,QVARLLSHAMWLVGKTL,inactive
21,HLYLRITTVG,1.49 ± 0.76
22,ADTCGCGWDSRRKCFMGGYS,-0.187 ± 0.52
23,VNEFLRFFLWSHLQWMI,-0.045 ± 0.28
24,VNVFYLMFQNIIIQVFLCVF,inactive
25,FHTLDVCPGRVLNLYNVKVW,-0.427 ± 1

row,Substance,amyloid nucleation score
1,MEPFSAC,-0.276 ± 1.9
2,PFILFQWPTLHRDYVHAQVL,0.686 ± 1.1
3,RLVSMEVCCTARLPCPYLLK,2.09 ± 0.25
4,LNIGTW,0.185 ± 0.28
5,TEAMTGYVLNNNWYSQLYVF,-0.601 ± 1.1
6,MSEFADTIMIVNGCGWRVVR,-0.039 ± 0.26
7,EFPIHQERAPSTTIHPSVSC,0.765 ± 0.9
8,YALRVSR,-0.346 ± 0.43
9,NMTFSMPSNINCPFLGLR,0.29 ± 0.47
10,SYRPFLMLGAQLQPYRVSGS,1.32 ± 0.6
11,TEYISG,-0.026 ± 0.97
12,NNVAGCLEFHRYQGMCGRSM,1.04 ± 0.36
13,LVFSRYYRCLFTIDF,3.62 ± 0.11
14,DHSCWGAWWVHFGAHDGGWC,1.25 ± 0.79
15,YTCLHGGSGVPPYLFQEHYS,0.193 ± 0.39
16,EMFHVVGSRLMPVRMVRNQC,inactive
17,HVHNYNFIFAVWIHP,5.87 ± 0.062
18,QVNRSVDFPSRFIKSY,-0.687 ± 1.4
19,GNCPNQIGAYVVKIIRMPAL,-0.311 ± 0.55
20,TYEPLTLMNGVLSVRSGPGI,-0.508 ± 1
21,FTVVWGHQVYVMTSPFSSAG,5.76 ± 0.062
22,GNWLSS,-0.082 ± 0.9
23,FPDMCILRILYVKVLV,-1.52 ± 1.6
24,LFYCRALRYFASHLDASNMH,-1.09 ± 0.84
25,LKTGGSPNLVANYMYDRCAG,0.581 ± 0.38

row,Substance,amyloid nucleation score
1,QMREFCLNACSINPRFLWAS,1.51 ± 0.31
2,STPAVDALRYCMTSIAFRKI,-1.11 ± 0.58
3,CRAGLVMSGWCRWFAQWMDS,-0.551 ± 0.59
4,SNTICQVGASREEPSCGTQW,1.14 ± 0.97
5,VFRPGRSSDCNLSMLVQRVW,4.18 ± 0.088
6,VVCARVLRWEVGYVFGKIER,inactive
7,HRQLWC,-1.96 ± 2.1
8,VVLKNHRHSVLSWWLTS,-0.622 ± 0.56
9,DSCRWGFLRVRVLGFSSVWY,-0.28 ± 0.49
10,MSSESLSMGRLDMG,inactive
11,NSYWLRCILPM,-0.065 ± 0.3
12,RIVRRFAGLISSI,inactive
13,RYTLFCLSVNYWWTFWLDSV,1.61 ± 0.58
14,SILMWLNLARSLGTIYLLFV,0.046 ± 0.76
15,QVSCSGFYRRDLSSRL,0.614 ± 0.56
16,AIEPHDGFWGVWSTLGVILI,1.32 ± 0.93
17,HILSSVLHSGVCMWTVITPY,0.72 ± 0.71
18,RSTGTGTICV,inactive
19,VVLPGYMLNGFPNESNLIWP,-1.22 ± 0.49
20,LALFIDWQ,1.53 ± 0.53
21,LNSVVTVKWVLKARSLVVRC,1.16 ± 0.88
22,SVVSFINLIASYFRELVGAV,0.225 ± 0.95
23,CLPNSYGAV,0.435 ± 0.53
24,AKVRKNYTFLHLSPLGRGFD,0.321 ± 0.48
25,QLELWVSLRCISWLQILRIL,1.06 ± 0.53

row,Substance,amyloid nucleation score
1,NSVWLLTNVLKFGTNVSRHR,2.57 ± 0.16
2,FGKSYRRFFARTKFGKAGGP,-1.29 ± 1.8
3,YWDKMTLTKNFKWLDLLGVG,inactive
4,AFDLTEVQFLRVVKS,-0.259 ± 0.44
5,LSTMRLGHYCLAYCRLGCLY,0.827 ± 0.41
6,KLSFK,-0.227 ± 1.9
7,DLAHYAW,0.286 ± 0.45
8,TISGAVRGCGGCSIRWLMSL,-0.663 ± 0.33
9,PCWTNSLLKPPVGIR,-0.281 ± 1.1
10,SQCELWGCSCTPYNRMFSGN,inactive
11,ANDFYVMYAEWKDCRNRVLF,0.655 ± 0.66
12,FRLTLGIVVLLVGK,inactive
13,SFYYWHPIALVSMVYK,5.89 ± 0.073
14,DYESSVGRSQDLAY,-0.745 ± 2.4
15,YNWVGIDRMGFYTFSVGLVC,-0.375 ± 0.38
16,RRSSILVNTGYPDLGYVMGD,-1.18 ± 1.3
17,FTNASDYYELVLHCRGAEKE,0.523 ± 0.3
18,RACYTCVPVSGSRMSVRNLW,3.19 ± 0.13
19,YKIGLT,-0.227 ± 0.48
20,GFSKMLLAIVSIQDKGSWDA,2.41 ± 0.17
21,AAVMCAIDLIGLNFGLGNWK,7.816 ± 0.052
22,HFVAVFMFYGWPSWYSYSES,-0.93 ± 0.35
23,LRLMLCFMFYAWTALCKPRD,0.31 ± 0.23
24,LWRLEWLLSGQRGTSPAVRV,0.764 ± 0.55
25,RRLLISPMTYVSDLASIQGC,0.175 ± 0.26

row,Substance,amyloid nucleation score
1,TMSSFDGPSV,-2.58 ± 1.8
2,ADCFCNRFNVICVKHYGSAR,0.159 ± 0.42
3,SNVMWFYSWMWVRVTRRTCL,1.71 ± 0.49
4,FLRELMRCIGASSTFLGVEK,-0.204 ± 0.29
5,SVSWYAMLRLSEIRDRCKSF,0.278 ± 0.32
6,IGCKCDIFVCNCISVCYVGA,4.3 ± 0.16
7,ITSYSFIRSNGSVMGSWGSV,-0.092 ± 0.65
8,DLYEAMSRNLADYRAVWGLS,inactive
9,GHWDTVGIR,-0.292 ± 0.28
10,RIRTIPFAPRNESPRCIGKF,-1.5 ± 0.86
11,NSHHKKGHVKRAVRLLHYPV,0.799 ± 0.84
12,MFGGYRSC,0.159 ± 1.2
13,RMIKNYSIS,0.89 ± 0.55
14,MMAFCS,0.264 ± 0.39
15,TWRNNLKWHMYTYLLPAHIG,-0.42 ± 0.46
16,SYLNPTVMILGFYP,0.825 ± 0.41
17,VSLHSRINTVSPRKGLGSYS,0.275 ± 0.71
18,GLSWYCGHLAKR,1.48 ± 0.49
19,TIAMCISLIGIDSYY,0.997 ± 0.29
20,SARYLMEFWKVHIKAYIMSF,0.099 ± 0.79
21,PRVSRRPWLKGFNNVSNQQI,0.193 ± 1.5
22,HKRAEKHNHFITWSIQSLRA,0.653 ± 0.33
23,IFSFNMQDN,-0.363 ± 1.2
24,TSSYGCQHINVMCCRLQGDL,7.444 ± 0.074
25,RFRVVNSCSTKPLLNEKLFG,inactive

row,Substance,amyloid nucleation score
1,VTMNRIV,0.501 ± 0.21
2,CDNDSMWGYCLTTRMGRFTA,-0.379 ± 0.59
3,VRKNSERGVK,-0.591 ± 0.4
4,YQWIFIHLPAVLSVGMEIRY,-0.672 ± 0.49
5,YHGIPFCMFFRVYAVR,0.216 ± 1.4
6,YMGYCYNTTKVCKLRQIYAG,1.71 ± 0.54
7,GRGHREPIVKDAAGRLGSWS,-0.421 ± 0.94
8,AVMMHDTVGVHW,-0.609 ± 0.6
9,VTRTYLNRMRSMLSGSMFFM,0.423 ± 0.35
10,VNNYTF,0.234 ± 0.28
11,LYVPCAIVGSLTRG,1.06 ± 0.66
12,NHCFLVRWNISKSSRDVSWC,0.142 ± 0.47
13,ITNCEAEEPDCWPDE,-0.357 ± 0.35
14,LEHYRVVLLG,-0.535 ± 0.43
15,FFVLFEVYMVWFTEGFARLA,-0.733 ± 0.57
16,VLTWMDVTDLLGCVLKLSPV,1.36 ± 0.45
17,WRAMAFVYLVASWSVGIRGR,0.07 ± 1
18,IWAHVPTSRYEILVVFSG,0.253 ± 0.45
19,DGRRLNLIWLYRIFWN,-0.767 ± 0.37
20,SYTRPILIWSLNRFSAG,1.26 ± 0.34
21,SHIFRWNTCRMEIRWYNQYY,1.14 ± 0.71
